The subject of this series is F1*sub RNA substrate (template-directed ligation). In words: fraction ligated after 30 min (ligated reads / total reads); higher = more ligase activity; sequences stand for … in GAGACCGCAACTGAAAAGTTGT…AGTTCTGCACGTAGAAGCAAAAGGC
The settings on record: 42 °C. In short, it runs like this:
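Ligase ribozyme variants were made from oligo-pool templates by PCR amplification, T7 transcription and gel purification. After gel separation, ligated and unligated bands were reverse transcribed with barcoded primers and sequenced on a MiSeq, with core bases filtered at quality ≥20. The fraction ligated for each variant was the number of ligated reads divided by total reads.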
For the sequence “TATCATTGTCGTAAACACTTTGGATGGGTTG [3d1236]”, the fraction ligated is 0.809.
In the case of “TATCATTGTCGTAAACACTTTGGATGGTTGA [3d1234]”, the fraction ligated was 0.0592.
For “TATCATTGTCGTAAACACTTTGGTGGGTTGA [3d1232]” the value was 0.0641; for “TATCATTGTCGTAAACATTTGGATGGGTTGA [3d1229]”, 0.798; for “TATCATTGTCGTAAACCTTTGGATGGGTTGA [3d1228]”, 0.79.
Take “TATCATTGTCGTAACACTTTGGATGGGTTGA [3d1215]”: the fraction ligated came out at 0.815.
Take “TATCATTGTCGTAAGAACTTGGATGGGTTGA [3d1248]”: the fraction ligated was 0.831.
With “TATCATTGTCGTAAGAACTTTGATGGGTTGA [3d1249]” the figure was 0.545; with “TATCATTGTCGTAAGAACTTTGGAGGGTTGA [3d1251]”, 0.0299; with “TATCATTGTCGTAAGAACTTTGGATGGGTTA [3d1253]”, 0.623.
Consider “TATCATTGTCGTAAGAACTTTGGATGGGTTG [3d1254]”, for which the fraction ligated is 0.815.
“TATCATTGTCGTAAGAACTTTGGATGGTTGA [3d1252]”: the fraction ligated was 0.0537.
For “TATCATTGTCGTAAGAACTTTGGTGGGTTGA [3d1250]” the value was 0.0672; for “TATCATTGTCGTAAGAATTTGGATGGGTTGA [3d1247]”, 0.796; for “TATCATTGTCGTAAGACACTGGATGGGTTGA [3d1269]”, 0.783.
With “TATCATTGTCGTAAGACACTTGATGGGTTGA [3d1270]” the figure was 0.779; with “TATCATTGTCGTAAGACACTTGGAGGGTTGA [3d1272]”, 0.183.
For “TATCATTGTCGTAAGACACTTGGATGGGTTA [3d1274]” the value was 0.728; for “TATCATTGTCGTAAGACACTTGGATGGGTTG [3d1275]”, 0.8; for “TATCATTGTCGTAAGACACTTGGATGGTTGA [3d1273]”, 0.395.
“TATCATTGTCGTAAGACACTTGGTGGGTTGA [3d1271]” registered a fraction ligated of 0.482.
Regarding “TATCATTGTCGTAAGACACTTTATGGGTTGA [3d1276]”, the fraction ligated was 0.0281.
For the sequence “TATCATTGTCGTAAGACACTTTGAGGGTTGA [3d1278]”, the fraction ligated was 0.00985.
With “TATCATTGTCGTAAGACACTTTGATGGGTTA [3d1280]” the figure was 0.158; with “TATCATTGTCGTAAGACACTTTGATGGGTTG [3d1281]”, 0.765.
With “TATCATTGTCGTAAGACACTTTGATGGTTGA [3d1279]” the figure was 0.027; with “TATCATTGTCGTAAGACACTTTGGAGGGTTA [3d1287]”, 0.0162; with “TATCATTGTCGTAAGACACTTTGGAGGGTTG [3d1288]”, 0.0338.
The sequence “TATCATTGTCGTAAGACACTTTGGAGGTTGA [3d1286]” showed a fraction ligated of 0.0106.
The sequence “TATCATTGTCGTAAGACACTTTGGATGGGTT [3d1291]” registered a fraction ligated of 0.0919.
With “TATCATTGTCGTAAGACACTTTGGATGGGTTA [2d126]” the figure was 0.67.
With “TATCATTGTCGTAAGACACTTTGGATGGGTTG [2d127]” the figure was 0.784; with TATCATTGTCGTAAGACACTTTGGATGGGTTGA [1d6], 0.796.
For “TATCATTGTCGTAAGACACTTTGGATGGTTA [3d1289]” the value was 0.203; for “TATCATTGTCGTAAGACACTTTGGATGGTTG [3d1290]”, 0.299; for “TATCATTGTCGTAAGACACTTTGGATGGTTGA [2d125]”, 0.456.
For the sequence “TATCATTGTCGTAAGACACTTTGGGGGTTGA [3d1282]”, the fraction ligated was determined as 0.0386.
With “TATCATTGTCGTAAGACACTTTGGTGGGTTA [3d1284]” the figure was 0.0335.
With “TATCATTGTCGTAAGACACTTTGGTGGGTTG [3d1285]” the figure was 0.247; with “TATCATTGTCGTAAGACACTTTGGTGGTTGA [3d1283]”, 0.0252.
In turn, “TATCATTGTCGTAAGACACTTTGTGGGTTGA [3d1277]” had a fraction ligated of 0.0371.
For “TATCATTGTCGTAAGACATTGGATGGGTTGA [3d1262]” the value was 0.801; for “TATCATTGTCGTAAGACATTTGATGGGTTGA [3d1263]”, 0.787.
Consider “TATCATTGTCGTAAGACATTTGGAGGGTTGA [3d1265]”, for which the fraction ligated amounted to 0.23.
Sequence “TATCATTGTCGTAAGACATTTGGATGGGTTA [3d1267]” gave a fraction ligated of 0.659.
Regarding “TATCATTGTCGTAAGACATTTGGATGGGTTG [3d1268]”, the fraction ligated was determined as 0.766.
With “TATCATTGTCGTAAGACATTTGGATGGTTGA [3d1266]” the figure was 0.567; with “TATCATTGTCGTAAGACATTTGGTGGGTTGA [3d1264]”, 0.421.
On to “TATCATTGTCGTAAGACCTTGGATGGGTTGA [3d1255]”, for which the fraction ligated amounted to 0.804.
The sequence “TATCATTGTCGTAAGACCTTTGATGGGTTGA [3d1256]” registered a fraction ligated of 0.778.
For “TATCATTGTCGTAAGACCTTTGGAGGGTTGA [3d1258]” the value was 0.104.
With “TATCATTGTCGTAAGACCTTTGGATGGGTTA [3d1260]”, the fraction ligated amounted to 0.697.
Consider “TATCATTGTCGTAAGACCTTTGGATGGGTTG [3d1261]”, for which the fraction ligated turned out to be 0.778.
Turning to “TATCATTGTCGTAAGACCTTTGGATGGTTGA [3d1259]”, the fraction ligated was 0.493.
In turn, “TATCATTGTCGTAAGACCTTTGGTGGGTTGA [3d1257]” yielded a fraction ligated of 0.426.
The sequence “TATCATTGTCGTAAGACTTTGGATGGGTTGA [3d1237]” displayed a fraction ligated of 0.802.
With “TATCATTGTCGTAAGCACTTGGATGGGTTGA [3d1240]” the figure was 0.771; with “TATCATTGTCGTAAGCACTTTGATGGGTTGA [3d1241]”, 0.58; with “TATCATTGTCGTAAGCACTTTGGAGGGTTGA [3d1243]”, 0.0203.
In turn, “TATCATTGTCGTAAGCACTTTGGATGGGTTA [3d1245]” showed a fraction ligated of 0.474.
“TATCATTGTCGTAAGCACTTTGGATGGGTTG [3d1246]” yielded a fraction ligated of 0.767.
In the case of “TATCATTGTCGTAAGCACTTTGGATGGTTGA [3d1244]”, the fraction ligated was found to be 0.0553.
Sequence “TATCATTGTCGTAAGCACTTTGGTGGGTTGA [3d1242]” displayed a fraction ligated of 0.0707.
For “TATCATTGTCGTAAGCATTTGGATGGGTTGA [3d1239]” the value was 0.796.
With “TATCATTGTCGTAAGCCTTTGGATGGGTTGA [3d1238]” the figure was 0.798; with “TATCATTGTCGTAGAACTTTGGATGGGTTGA [3d1217]”, 0.864; with “TATCATTGTCGTAGACACTTGGATGGGTTGA [3d1220]”, 0.752.
On to “TATCATTGTCGTAGACACTTTGATGGGTTGA [3d1221]”, for which the fraction ligated is 0.774.
For “TATCATTGTCGTAGACACTTTGGAGGGTTGA [3d1223]” the value was 0.0919; for “TATCATTGTCGTAGACACTTTGGATGGGTTA [3d1225]”, 0.595.
“TATCATTGTCGTAGACACTTTGGATGGGTTG [3d1226]” registered a fraction ligated of 0.799.
For “TATCATTGTCGTAGACACTTTGGATGGGTTGA [2d115]” the value was 0.798.
With “TATCATTGTCGTAGACACTTTGGATGGTTGA [3d1224]” the figure was 0.305; with “TATCATTGTCGTAGACACTTTGGTGGGTTGA [3d1222]”, 0.356; with “TATCATTGTCGTAGACATTTGGATGGGTTGA [3d1219]”, 0.809.
As for “TATCATTGTCGTAGACCTTTGGATGGGTTGA [3d1218]”, the fraction ligated amounted to 0.788.
For “TATCATTGTCGTAGCACTTTGGATGGGTTGA [3d1216]” the value was 0.814; for “TATCATTGTCGTGACACTTTGGATGGGTTGA [3d1214]”, 0.792; for “TATCATTGTCTAAACACTTTGGATGGGTTGA [3d1189]”, 0.785.
With “TATCATTGTCTAAGAACTTTGGATGGGTTGA [3d1191]” the figure was 0.803; with “TATCATTGTCTAAGACACTTGGATGGGTTGA [3d1194]”, 0.78.
For “TATCATTGTCTAAGACACTTTGATGGGTTGA [3d1195]” the value was 0.751.
“TATCATTGTCTAAGACACTTTGGAGGGTTGA [3d1197]” returned a fraction ligated of 0.0716.
On to “TATCATTGTCTAAGACACTTTGGATGGGTTA [3d1199]”, for which the fraction ligated was 0.477.
“TATCATTGTCTAAGACACTTTGGATGGGTTG [3d1200]”: the fraction ligated stood at 0.769.
For “TATCATTGTCTAAGACACTTTGGATGGGTTGA [2d113]” the value was 0.785; for “TATCATTGTCTAAGACACTTTGGATGGTTGA [3d1198]”, 0.169; for “TATCATTGTCTAAGACACTTTGGTGGGTTGA [3d1196]”, 0.222.
Regarding “TATCATTGTCTAAGACATTTGGATGGGTTGA [3d1193]”, the fraction ligated is 0.778.
With “TATCATTGTCTAAGACCTTTGGATGGGTTGA [3d1192]” the figure was 0.758; with “TATCATTGTCTAAGCACTTTGGATGGGTTGA [3d1190]”, 0.765.
With “TATCATTGTCTAGACACTTTGGATGGGTTGA [3d1188]” the figure was 0.765.
For “TATCATTGTGAAGACACTTTGGATGGGTTGA [3d1173]” the value was 0.824.
With “TATCATTGTGTAAACACTTTGGATGGGTTGA [3d1175]”, the fraction ligated stood at 0.82.
Take “TATCATTGTGTAAGAACTTTGGATGGGTTGA [3d1177]”: the fraction ligated was 0.856.
With “TATCATTGTGTAAGACACTTGGATGGGTTGA [3d1180]” the figure was 0.799.
The sequence “TATCATTGTGTAAGACACTTTGATGGGTTGA [3d1181]” displayed a fraction ligated of 0.308.

For the origin of these results see the supplement of paper PMC6755084.
